Target: the molecule itself
Experiment: SDS-PAGE not boiled, fluorescence imaging of the gel

B1: tdimer2(12) (tandem dimer of dimer2 with the 12 residue linker) (other)
chain: MRGSHHHHHHGMASMTGGQQMGRDLYDDDDKDPMVASSEDVIKEFMRFKVRMEGSVNGHEFEIEGEGEGRPYEGTQTAKLKVTKGGPLPFAWDILSPQFQYGSKAYVKHPADIPDYKKLSFPEGFKWERVMNFEDGGVVTVTQDSSLQDGTLIYKVKFRGTNFPPDGPVMQKKTMGWEASTERLYPRDGVLKGEIHQALKLKDGGHYLVEFKTIYMAKKPVQLPGYYYVDTKLDITSHNEDYTIVEQYERSEGRHHLFLGHGTGSTGSGSSMVASSEDVIKEFMRFKVRMEGSVNGHEFEIEGEGEGRPYEGTQTAKLKVTKGGPLPFAWDILSPQFQYGSKAYVKHPADIPDYKKLSFPEGFKWERVMNFEDGGVVTVTQDSSLQDGTLIYKVKFRGTNFPPDGPVMQKKTMGWEASTERLYPRDGVLKGEIHQALKLKDGGHYLVEFKTIYMAKKPVQLPGYYYVDTKLDITSHNEDYTIVEQYERSEGRHHLFL
notes: Exact junctions (SphI/SacI sites, start Met of second copy) are not spelled out
binding result: binds

— patent US7687614 (University of California, dated 2010)
